Results: US20250051433A1 (INMAGENE PTE, published 2025)
Changes are numbered by the printed parent chain. Where two headings read alike, the source gives them in different places.

Assays:
[1] = target: T1, human long form TSLP expressed on cell membrane; assay: FACS on cells expressing the membrane human long-form TSLP fusion protein, MFI; unit taken from the concentration axis
T1 construct: also called membrane long-form huTSLP fusion protein; membrane long-form TSLP fusion protein

[2] = target: T2, cynomolgus long-form TSLP protein (ACRO, tsp-c52h8) (cynomolgus monkey, UniProt A0A7N9CAT7 29-159); assay: ELISA on coated cynomolgus long-form TSLP, OD450; ambiguous fit of a flat curve (Bottom 0.06295, Top ~ 145.1), see non_binding; unit taken from the concentration axis
T2 construct: also called monkey long-form TSLP; Cyno TSLP
T2 sequence: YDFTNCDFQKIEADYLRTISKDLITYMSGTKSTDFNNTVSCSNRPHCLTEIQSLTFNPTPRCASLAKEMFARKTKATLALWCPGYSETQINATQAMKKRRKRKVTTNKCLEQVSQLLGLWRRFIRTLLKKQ

[3] = target: T3, human long-form TSLP protein (Acro, tsp-h5255 or tsp-h52ha) (human, UniProt Q969D9 29-159); assay: ELISA on coated human long-form TSLP, OD450; unit taken from the concentration axis
T3 construct: If it was tsp-h52ha, this is the same molecule as m12 (His-tagged); also called human TSLP protein
T3 sequence (Q969D9 29-159 R127A/R130A limits assumed): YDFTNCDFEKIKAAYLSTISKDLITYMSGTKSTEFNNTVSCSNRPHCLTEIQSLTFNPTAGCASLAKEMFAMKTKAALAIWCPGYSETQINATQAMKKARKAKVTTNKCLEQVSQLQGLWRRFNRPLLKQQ

[4] = target: T4, mouse long-form TSLP protein (ACRO, tsp-m52h8) (mouse, UniProt Q9JIE6 20-140); assay: ELISA on coated mouse long-form TSLP
T4 construct: Bought; also called mouse TSLP
T4 sequence (looked up): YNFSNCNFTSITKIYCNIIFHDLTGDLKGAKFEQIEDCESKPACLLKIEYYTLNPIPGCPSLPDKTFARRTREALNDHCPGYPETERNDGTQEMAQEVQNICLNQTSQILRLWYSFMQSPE

[5] = target: T3, human long-form TSLP protein (Acro, …); assay: BLI (Gator, HFC probe), antibody loaded at 10 ug/ml, TSLP at 50 to 1.56 nM
[6] = target: T5, membrane short-form huTSLP fusion protein (human); assay: FACS on cells expressing membrane short-form huTSLP, MFI; ambiguous fit of a flat curve (Bottom 895.5, Top 876.2), see non_binding; unit taken from the concentration axis
T5 construct: also called human short form TSLP expressed on cell membrane
T5 sequence (chain, as listed by the source limits assumed): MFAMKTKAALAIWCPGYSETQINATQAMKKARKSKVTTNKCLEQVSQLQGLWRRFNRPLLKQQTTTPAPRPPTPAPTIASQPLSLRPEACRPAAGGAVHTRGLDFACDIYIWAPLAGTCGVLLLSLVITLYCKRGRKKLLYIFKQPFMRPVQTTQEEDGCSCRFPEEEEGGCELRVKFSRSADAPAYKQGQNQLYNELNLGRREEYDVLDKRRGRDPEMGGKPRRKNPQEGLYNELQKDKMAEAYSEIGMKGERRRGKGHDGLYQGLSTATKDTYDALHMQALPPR

[7] = target: T3, human long-form TSLP protein (Acro, …); assay: ELISA on coated human long-form TSLP, OD450; unit taken from the concentration axis; remark: listed apart in the source
[8] = target: T1, human long form TSLP expressed on cell …; assay: FACS on cells expressing the membrane human long-form TSLP fusion protein, MFI; unit taken from the concentration axis; remark: listed apart in the source
[9] = target: T2, cynomolgus long-form TSLP protein …; assay: ELISA on coated cynomolgus long-form TSLP, OD450; ambiguous fit of a flat curve (Bottom 0.06800, Top ~ 0.8608), see non_binding; unit taken from the concentration axis
[10] = target: T5, membrane short-form huTSLP fusion …; assay: FACS on cells expressing membrane short-form huTSLP, MFI; ambiguous fit of a flat curve (Bottom 712.4, Top 749.3), see non_binding; unit taken from the concentration axis
[11] = target: T1, human long form TSLP expressed on cell …; assay: FACS on cells expressing the membrane human long-form TSLP fusion protein, MFI; rising binding curve, but the table column is headed IC50; unit taken from the concentration axis
[12] = target: T5, membrane short-form huTSLP fusion …; assay: FACS on cells expressing membrane short-form huTSLP, MFI; ambiguous fit of a flat curve (Bottom 778.2, Top 872.2), see non_binding; unit taken from the concentration axis
[13] = target: T1, human long form TSLP expressed on cell …; assay: FACS on cells expressing the membrane human long-form TSLP fusion protein, MFI; unit taken from the concentration axis; remark: listed apart in the source
[14] = target: T1, human long form TSLP expressed on cell …; assay: as above; remark: listed apart in the source
[15] = target: T2, cynomolgus long-form TSLP protein …; assay: ELISA on coated cynomolgus long-form TSLP, OD450; curve still rising at the highest concentration (about 1.2 at about 20 µg/mL, fitted Top 1.343); unit taken from the concentration axis
[16] = target: T3, human long-form TSLP protein (Acro, …); assay: ELISA on coated human long-form TSLP, OD450; unit taken from the concentration axis; remark: listed apart in the source

T1 sequence (chain, as listed by the source): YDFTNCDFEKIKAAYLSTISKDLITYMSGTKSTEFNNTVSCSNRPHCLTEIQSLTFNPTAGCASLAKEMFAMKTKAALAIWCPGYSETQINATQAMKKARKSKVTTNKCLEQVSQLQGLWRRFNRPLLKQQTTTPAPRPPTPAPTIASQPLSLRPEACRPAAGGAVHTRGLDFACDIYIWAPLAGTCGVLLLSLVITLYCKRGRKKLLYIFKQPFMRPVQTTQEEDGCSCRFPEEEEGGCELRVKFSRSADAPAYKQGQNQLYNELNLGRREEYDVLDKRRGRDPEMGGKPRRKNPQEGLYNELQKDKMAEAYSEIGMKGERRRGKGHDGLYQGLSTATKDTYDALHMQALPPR

B1: 39H11Z11 (antibody, human IgG2, V domains shown)
VH: QVQLVQSGAEVKKPGASVKVSCKASGYAFSSYWMNWVRQAPGQGLEWMGQIFPGDGETNYNGKFKGRVTMTRDTSTSTVYMELSSLRSEDTAVYYCARGGYVNFLYAMDYWGQGTTVTVSS
VL: EIVMTQSPATLSVSPGERATLSCSVSSSISSSNLHWYQQKPGQSPRPWIYGTSTLASGIPARFSGSGSGTEFTLTISSLQSEDFAVYYCQQWSSYPLTFGGGTKVEIK
B1 gave an EC50 [1] of 0.129 µg/mL.

B2: mAb35G12 (antibody)
heavy: QVQLVQSGAEVKKPGSSVKVSCKSSGYAFSSYWINWVRQAPGQGLEWMGQIFPGDGDTTYNGNFKGRVTITADKSTSTAYMELSSLRSEDTAVYYCARSGFDYGYFYAMDYWGQGTTVTVSSASTKGPSVFPLAPCSRSTSESTAALGCLVKDYFPEPVTVSWNSGALTSGVHTFPAVLQSSGLYSLSSVVTVPSSSLGTKTYTCNVDHKPSNTKVDKRVESKYGPPCPPCPAPEAAGGPSVFLFPPKPKDTLYITREPEVTCVVVDVSQEDPEVQFNWYVDGVEVHNAKTKPREEQFNSTYRVVSVLTVLHQDWLNGKEYKCKVSNKGLPSSIEKTISKAKGQPREPQVYTLPPSQEEMTKNQVSLTCLVKGFYPSDIAVEWESNGQPENNYKTTPPVLDSDGSFFLYSRLTVDKSRWQEGNVFSCSVMHEALHNHYTQKSLSLSLG
light: B1 VL with Y50F, T54N
notes: not shown: human kappa light chain constant region ('its corresponding light chain vector')
In the case of B2, the EC50 [2] is reported as ~51.9 µg/mL, the EC50 [3] is reported as 0.122 µg/mL and the binding result [4] is reported as “no binding (tested: about 20 µg/mL)”. For the same binder, the Kd [5] was 1.98 nM, the EC50 [6] was ~0.384 µg/mL and the EC50 [7] was 0.206 µg/mL.

B3: 35G12Z02 (antibody, human IgG2, V domains shown)
VH: EVQLVQSGAEVKKPGESLKISCKSSGYAFSSYWINWVRQMPGKGLEWMGQIFPGDGDTTYNGNFKGQVTISADKSISTAYLQWSSLKASDTAMYYCARSGFDYGYFYAMDYWGQGTTVTVSS
VL: B1 VL with Y50F, T54N
Work on B3 yielded an EC50 [8] of 0.174 µg/mL.

B4: mAb39H11 (antibody, IgG4)
heavy: QVQLVQSGAEVKKPGSSVKVSCKASGYAFSSYWMNWVRQAPGQGLEWMGQIFPGDGETNYNGKFKGRVTITADKSTSTAYMELSSLRSEDTAVYYCARGGYVNFLYAMDYWGQGTTVTVSSASTKGPSVFPLAPCSRSTSESTAALGCLVKDYFPEPVTVSWNSGALTSGVHTFPAVLQSSGLYSLSSVVTVPSSSLGTKTYTCNVDHKPSNTKVDKRVESKYGPPCPPCPAPEAAGGPSVFLFPPKPKDTLYITREPEVTCVVVDVSQEDPEVQFNWYVDGVEVHNAKTKPREEQFNSTYRVVSVLTVLHQDWLNGKEYKCKVSNKGLPSSIEKTISKAKGQPREPQVYTLPPSQEEMTKNQVSLTCLVKGFYPSDIAVEWESNGQPENNYKTTPPVLDSDGSFFLYSRLTVDKSRWQEGNVFSCSVMHEALHNHYTQKSLSLSLG
light: B1 VL
notes: as for B2
For B4, the EC50 [9] was ~23.8 µg/mL, the EC50 [3] was 0.149 µg/mL and the binding result [4] was “no binding (tested: about 20 µg/mL)”. It also gave a Kd [5] of 2.1 nM, an EC50 [10] of ~0.134 µg/mL and an EC50 [7] of 0.153 µg/mL.

B5: 35G12Z01 (antibody, human IgG2, V domains shown)
VH: QVQLVQSGAEVKKPGASVKVSCKSSGYAFSSYWMNWVRQAPGQGLEWMGQIFPGDGDTTYNGNFKGRVTMTRDTSTSTVYMELSSLRSEDTAVYYCARSGFDYGYFYAMDYWGQGTTVTVSS
VL: B1 VL with Y50F, T54N
Binder B5 has an EC50 [8] of 0.158 µg/mL.

B6: AMG 157 (antibody, human IgG2, lambda, V domains shown)
VH: QMQLVESGGGVVQPGRSLRLSCAASGFTFRTYGMHWVRQAPGKGLEWVAVIWYDGSNKHYADSVKGRFTITRDNSKNTLNLQMNSLRAEDTAVYYCARAPQWELVHEAFDIWGQGTMVTVSS
VL: SYVLTQPPSVSVAPGQTARITCGGNNLGSKSVHWYQQKPGQAPVLVVYDDSDRPSWIPERFSGSNSGNTATLTISRGEAGDEADYYCQVWDSSSDHVVFGGGTKLTVLG
notes: also called BMK; benchmark
B6 showed an EC50 [11] of 0.515 µg/mL, an EC50 [12] of ~13.5 µg/mL and an EC50 [8] of 0.156 µg/mL. For the same binder, the EC50 [13] was 0.0712 µg/mL, the EC50 [1] was 0.0466 µg/mL and the binding result [4] was “no binding (tested: about 20 µg/mL)”. The EC50 [14] was 0.219 µg/mL and the EC50 [15] was 1.24 µg/mL.

B7: Chi39H11 (antibody, human IgG2, V domains shown)
VH: QVQLQQSGAELVRPGSSVKISCKASGYAFSSYWMNWVKQRPGQGLEWIGQIFPGDGETNYNGKFKGKATLTADKSSSTAYMQLSSLTSEDSAVYFCARGGYVNFLYAMDYWGQGTSVTVSS
VL: EIVLTQSPALMAASPGEKVTITCSVSSSISSSNLHWYQQKSETSPKPWIYGTSTLASGVPVRFSGSGSGTSYSLTISSMEAEDAATYYCQQWSSYPLTFGAGTKLELK
notes: also called 39H11 chimeric antibody
Binder B7 has an EC50 [16] of 0.0325 µg/mL, an EC50 [13] of 0.0953 µg/mL and an EC50 [1] of 0.111 µg/mL. For the same binder, the EC50 [14] was 0.228 µg/mL.

B8: Chi35G12 (antibody, human IgG2, V domains shown)
VH: QVQLQQSGAELVRPGSSVKISCKSSGYAFSSYWMNWVKQRPGQGLEWIGQIFPGDGDTTYNGNFKGKTTLTADKSSNTAYMQLSSLTSEDSAVYFCARSGFDYGYFYAMDYWGQGTSVTVSS
VL: B7 VL with A9T, Y50F, T54N, S78N
notes: also called 35G12 chimeric antibody
For B8, the EC50 [11] was 0.403 µg/mL and the EC50 [8] was 0.173 µg/mL.

B9: 39H11Z07 (antibody, human IgG2, kappa)
heavy: QVQLVQSGAEVKKPGSSVKVSCKASGYAFSSYWMNWVRQAPGQGLEWMGQIFPGDGETNYNGKFKGRVTITADKSTSTAYMELSSLRSEDTAVYYCARGGYVNFLYAMDYWGQGTTVTVSSASTKGPSVFPLAPCSRSTSESTAALGCLVKDYFPEPVTVSWNSGALTSGVHTFPAVLQSSGLYSLSSVVTVPSSNFGTQTYTCNVDHKPSNTKVDKTVERKCCVECPPCPAPPVAGPSVFLFPPKPKDTLMISRTPEVTCVVVDVSHEDPEVQFNWYVDGVEVHNAKTKPREEQFNSTFRVVSVLTVVHQDWLNGKEYKCKVSNKGLPAPIEKTISKTKGQPREPQVYTLPPSREEMTKNQVSLTCLVKGFYPSDISVEWESNGQPENNYKTTPPMLDSDGSFFLYSKLTVDKSRWQQGNVFSCSVMHEALHNHYTQKSLSLSPGK
light: EIVMTQSPATLSVSPGERATLSCSVSSSISSSNLHWYQQKPGQSPRPWIYGTSTLASGIPARFSGSGSGTEFTLTISSLQSEDFAVYYCQQWSSYPLTFGGGTKVEIKRTVAAPSVFIFPPSDEQLKSGTASVVCLLNNFYPREAKVQWKVDNALQSGNSQESVTEQDSKDSTYSLSSTLTLSKADYEKHKVYACEVTHQGLSSPVTKSFNRGEC
notes: also called 39H11Z07-IgG2
With B9 the EC50 [13] was 0.079 µg/mL.

B10: 35G12Z03 (antibody, human IgG2, kappa)
heavy: QVQLVQSGAEVKKPGSSVKVSCKSSGYAFSSYWINWVRQAPGQGLEWMGQIFPGDGDTTYNGNFKGRVTITADKSTSTAYMELSSLRSEDTAVYYCARSGFDYGYFYAMDYWGQGTTVTVSSASTKGPSVFPLAPCSRSTSESTAALGCLVKDYFPEPVTVSWNSGALTSGVHTFPAVLQSSGLYSLSSVVTVPSSNFGTQTYTCNVDHKPSNTKVDKTVERKCCVECPPCPAPPVAGPSVFLFPPKPKDTLMISRTPEVTCVVVDVSHEDPEVQFNWYVDGVEVHNAKTKPREEQFNSTFRVVSVLTVVHQDWLNGKEYKCKVSNKGLPAPIEKTISKTKGQPREPQVYTLPPSREEMTKNQVSLTCLVKGFYPSDISVEWESNGQPENNYKTTPPMLDSDGSFFLYSKLTVDKSRWQQGNVFSCSVMHEALHNHYTQKSLSLSPGK
light: B9 light with Y50F, T54N
notes: also called 35G12Z03-IgG2
In the case of B10, the EC50 [8] is reported as 0.159 µg/mL.
